B1: M16: human anti-mesothelin scFv, SEQ ID NO: 245 (protein)
scFv: EVQLVESGGGLVQPGRSLRLSCAASGFTFDDYAMHWVRQAPGKGLEWVSGISWNSGSTGYADSVKGRFTISRDNAKNSLYLQMNSLRAEDTALYYCAKDSSSWYGGGSAFDIWGQGTMVTVSSGGGGSGGGGSGGGGSSSELTQEPAVSVALGQTVRITCQGDSLRSYYASWYQQKPGQAPVLVIFGRSRRPSGIPDRFSGSSSGNTASLIITGAQAEDEADYYCNSRDNTANHYVFGTGTKLTVL
B2: M17: human anti-mesothelin scFv, SEQ ID NO: 246 (protein)
scFv: EVQLVESGGGLVQPGRSLRLSCAASGFTFDDYAMHWVRQAPGKGLEWVSGISWNSGSTGYADSVKGRFTISRDNAKNSLYLQMNSLRAEDTALYYCAKDSSSWYGGGSAFDIWGQGTMVTVSSGGGGSGGGGSGGGGSSSELTQDPAVSVALGQTVRITCQGDSLRSYYASWYQQKPGQAPVLVIYGKNNRPSGIPDRFSGSSSGNTASLTITGAQAEDEADYYCNSRGSSGNHYVFGTGTKVTVL
B3: DAP12: T cells expressing DAP12 and dsRed; DAP12 adaptor molecule, SEQ ID NO: 368 (protein)
chain: MGGLEPCSRFLLLPLLLAVSGLRPVQVQAQSDCSCSTVSPGVLAGIVMGDLVLTVLIALAVYFLGRLVPRGRGAAEAATRKQRITETESPYQELQGQRSDVYSDLNTQRPYYK
B4: KIR2DL3: wild-type KIR2DL3 inhibitory receptor co-expressed in T cells (SEQ ID NO: 345) (protein)
chain: MSLMVVSMVCVGFFLLQGAWPHEGVHRKPSLLAHPGPLVKSEETVILQCWSDVRFQHFLLHREGKFKDTLHLIGEHHDGVSKANFSIGPMMQDLAGTYRCYGSVTHSPYQLSAPSDPLDIVITGLYEKPSLSAQPGPTVLAGESVTLSCSSRSSYDMYHLSREGEAHERRFSAGPKVNGTFQADFPLGPATHGGTYRCFGSFRDSPYEWSNSSDPLLVSVTGNPSNSWPSPTEPSSETGNPRHLHVLIGTSVVIILFILLLFFLLHRWCCNKKNAVVMDQEPAGNRTVNREDSDEQDPQEVTYAQLNHCVFTQRKITRPSQRPKTPPTDIIVYTELPNAEP

Legend:
[1] = test system: K562 cells engineered to express mesothelin; assay: Antigen-triggered cytokine secretion; format: cell-based, human; settings: Example 14, T cells:targets 2:1, 24 hours, ELISA
Protocol: Cytokine production of the huMeso-KIRS2-expressing CAR cells was also assessed. Primary human T cells were simulated, transduced with the huMes-KIRS2 and expanded as previously described. Following expansion, the transduced T cells were mixed with K562 (mesothelin-negative cells, empty bars) or K562 cells engineered to express mesothelin (black bars) at a ratio of 2:1. Cytokine concentrations (IFNγ and IL-2) were determined in supernatants following 24 hours of stimulation by ELISA for the indicated cytokines.

[2] = test system: mesothelioma-derived cells expressing mesothelin (EM-meso cells); assay: EM-meso subcutaneous xenograft in NSG mice, tumor volume by caliper; format: in vivo, mouse; settings: 4 million T cells i.v. day 20
Protocol: 20 days following tumor implantation, each animal was injected intravenously with 5×10^6 T cells that were stimulated with anti-CD3/anti-CD28 stimulator beads followed lentiviral transduction with a series of CD3ζ-based CAR with or without a costimulatory domain (SS1-ζ, SS1-BBζ and SS1-28ζ) or the mesothelin-specific KIR-based CARs, SS1-KIRS2 with DAP12. Mock transduced T cells (NTD) were used as a control. Tumor volume was measured by caliper at the indicated times (n=7 mice per group). […] The frequency of human CD45+ T cells was assessed at the end of the experiment by flow cytometry, and data are expressed as a percentage of total viable cells in the blood, spleen and tumor digest. […] The frequency of CD3+ human lymphocytes in tumors at day 30 (10 days following CAR T infusion) was assessed by flow cytometry. […] 4 million T cells expressing DAP12 and dsRed (DAP12), SS1-28z or SS1-KIRS2 and DAP12 (SS1-KIRS2) were injected intravenously on day 20, and tumor volume was assessed over time via caliper measurement. […] Antigen-specific cytotoxicity was assessed by coculturing with firefly luciferase expressing EM-meso cells or EMp cells (parental EM cells lacking mesothelin expression) at indicated E:T ratios for 18 hours. […]
Animal models can also be used to measure activity of a CAR-expressing cell. […] Animals are assessed for tumor progression at weekly intervals. […]

K562-meso-HLACw = assay: KIR2DL3 suppression of KIR-CAR cytotoxicity, 51Cr release against K562-meso-HLACw; format: cell-based, human; settings: coexpressed with SS1-KIRS2/DAP12, HLA-Cw on the target cells
Protocol: K562 cells (K562) or K562 cells expressing mesothelin (K562-meso) were transduced with the HLA-Cw3 allele followed by fluorescence activated cell sorting to obtain K562 cells expressing HLA-Cw with (K562-meso-HLACw) or without (K562-HLACw) expression of mesothelin. HLA-Cw3 expression was assessed by flow cytometry using an APC-conjugated monoclonal antibody that recognizes HLA-A, B and C alleles (clone W6/32).
Primary human T cells were stimulated with CD3/28 microbeads followed by lentiviral transduction with SS1-KIRS2 and DAP12 (SS1-KIRS2) or mock transduced (NTD) in combination with wild-type KIR2DL3. The T cells were expanded until the end of log-phase growth. The surface expression of the mesothelin-specific CAR and KIR2DL3 was determined by staining with mesothelin-Fc followed by PE-conjugated goat-anti-human Fc and a monoclonal antibody to the KIR2DL3 ectodomain.
T cell that were generated and characterized as described in FIG. 21 were mixed with 51-Cr labeled target K562 cells that were generated and characterized as described in FIG. 22. Cytotoxicity was determined by measuring the fraction of ^51Cr released into the supernatant at 4 hours compared target cells without effector cells.

| Molecule | IL-2 production [1] | further results |
| --- | --- | --- |
| B1 | produced IL-2 | – |
| B2 | produced IL-2 | – |
| B3 | – | tumor eradication by DAP12-modified T cells [2]: require the mesothelin-specific KIR-based CAR for tumor eradication |
| B4 | – | effect on antigen specific cytotoxicity of co-expressed KIR CAR (K562-meso-HLACw): can suppress antigen specific cytotoxicity |
